Test results taken from a protein production outcome set (Wang et al. 2014).

Assay: label from the status in PepcDB records
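Note: failed if final PepcDB status was selected cloned or expressed and not failed if soluble or beyond.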

Sequence: MKAALWMAGWLALMVIVAVAGRETLRELSVFQVMELRSVIGFAMLYPLIHKFGGLTAMATARPLAHLSRNLVHYAAQLGWFYALTLISIGQVVSIEFTMPIWIAILAATFLGEHMNVWKITAVVLGLIGVVVIVRPATSSIEPGQLIALGAAVGFGISVTLMKSLTRTESTLAIIFWMLLIQSAAGLVPALWLWQWPSAYVWVWIVIIAFCGTFSHYCMARALTYADATIVVPMDFLRVPLSATAGWLIYGERLDAYTVIGAALILIGNLLNLRGAPRPPAAASIRNSP
- protein production: failed

Sequence: MKAEKNLNKTLKISYKALFFSFALTLIKLLAGFLGNSTALIADSIRSFSELINELKKLLEVFIASKPEDWSHNYGHGKVATLFTGAGACILLFAGIESISLASQELLIFIQGRETEAPEILALSAASLTLVSREIIPLFSSKGKEIEGTLSGTGIYTRNAQIRSLLLSCFVTLGIGCTFLPGKNWVVTDSFIAALMSLYLLGTSGKLLYGTANELIEASLDEEDNKKIRKIINTTEGVTGSGELKTRKIGNGIAINACITVSDSLNIQEVAEIADRVENRLKTVYGEDIYALVKAEPDPGRNCSFRKKMEFSEEGRKENKGINTQDKMLA
- protein production: failed

Sequence: MKAIIMAGGEGSRLRPLTCKRPKPLVPVANRPVMEYCVDLLRELGIKEVGVTLQYLPQLIEEYFGDGSDFGLHLHYFVEDKPLGTAGSVKNAAAILDETFVVVSGDALTDFDLRPAIARHKESGALATLVLTAVDNPLEYGVVITNPDGSIRSFLEKPSWGEVFSDRVNTGIYILEPEVLELIPEGRPFDFSKDLFPRLLKEKRPLYGVTLSGYWCDIGNLTQYRQAQEDILRGRVKVRVVGQDKGGGVVMGEGVEIAPGARIEGPVLIGGACHIATGAVVGPFTVLGPYTRVEEGATVRRSVLWDNVYTGEGANVRGAVVCSRASLQRRVQVYEGAVIGDGTQVDAGAEVRPEVKVWPEKTLGRETVVHESLIWGRGVARPLFVGSQAPGYLHGDLTPFQVTRLGMAYGASFPPGTTVGLSTFAGGAGEMLYKALAAGLMAAGVQVADLGRLLTPIHRFAVRSLGLDGGCHIKRDAAERDKVWLHLVNSRGHDLNPAAVRKIENLYWREDGRRVQEVPASIYFPGLEGAYRDWLLATLGDHGLKKRALRVALGGQGQVAGVAGTILQDAGAEVIRLDLDPAKTWQAVQEDLPYFAGEIRRYGADLGAALDSNGEELILFTGEGRRVAPAQQMTLLARVYLETHRGASLVLPVTAPRVLEQVAGGLHGRVERVKGHPGIYHEAMARADGETALGQQHLQLDALAALVHILDWLASREESLDSAVAALPPVYTASRTVACPWEAKGRVMRTLISEEPADGVELLDGVQVRHGKGWSLVLPDGETPHYHIYSEAFSQEAAEELAGFYEERLKELIAREKSKGR
- protein production: failed

Sequence: MKAIITVVGKDKSGIVAGVSGKIAELGLNIDDISQTVLDEYFTMMAVVSSDEKQDFTYLRNEFEAFGQTLNVKINIQSAAIFEAMYNI
- protein production: not failed

Sequence: MKAILRASRIGRVILRYRLDALLEGTPAERWLRLAKPFVPRASAEIAAQSRGARLRLALQELGPIFVKFGQILSTRRDLIPADVAEELTLLQDRVKPFDGQAARLIVEAALGLPVSVAFASFDTVPLASASIAQVHAATLPPDANGVRREVVVKVLRPEIERQIDADIALLHSLATLVERTHPRADKIRPREVVAEIEGTLAAELDLQREGANASVLRRFWEGSDDLYVPEVIWSHTAERALTLERVYGIPSDDIAKLDAAGIDRKALAAKGVRVFYTQVFRDNFFHADAHAGNIWVDSDPERRLNPRFIALDFGIMGQLSQEDQYYLAENFMAIFHKDYRRMAELHVEAGWMPSNVRIDELEAAARSVCEPYFNRPLSEISLAQVLIKLFRVAQRYELTLQPQLILLQKTLLNIEGVGRQLDPRLDIWAVARPVLERILRERYSPRRVLRELSKRLPEIMTHAPDMPRLVYSWLTQQVEGRHQIAIRSPELLALDLSLRKLQTRVVTAITGSGLLVVAAVLYGLHPDGWYLGTVPVWSWISGGAGSAALLVAWLRR
- protein production: failed

Sequence: MKAKIYYNGNIITMEDSICGDAILIKDKIIKKIGTKEEVFALKNKDTEIIDLQGKTLMPSFIDSHSHLIAFATTLKLVPLEDATSFKDIVKKIQDFKESLEHHHHHH
- protein production: failed

Sequence: MKAKPLSQDPGSKRYAYRINKEENRKELKHVKINESSLVQEGQKIDLPKKRYYRQRAHSNPFSDHQLEYPVSPQDMDWSKLYPYYKNAENGQMTKKVTIADIGCGFGGLMIDLSPAFPEDLILGMEIRVQVTNYVEDRIIALRNNTASKHGFQNINVLRGNAMKFLPNFFEKGQLSKMFFCFPDPHFKQRKHKARIITNTLLSEYAYVLKEGGVVYTITDVKDLHEWMVKHLEEHPLFERLSKEWEENDECVKIMRNATEEGKKVERKKGDKFVACFTRLPTPAIL
- protein production: failed

Sequence: MKAKSLMVVGTTSHAGKSLLAAVICRWLAQQGYRVTPFKGQNMALNAYVTREGGEIGYAQAMQAWAAGIEPEVAMNPILLKPQGNMTSQVILRGQVVGVTRAADYYRDYFERGWQAITEALADLQQRFDWIVCEGAGSPAEINLKHRDLTNMRVATYLGAPTILVADIDRGGVFAHIVGTLMLLEPAERALIQGIVINKFRGQRSLLDSGLQWLEETTGVPVLGVIPWLERHYAAEDSLDLWDPRPQRQGADLKITVIRLPRIANFTDIDPLLAEPSVAVEFLPPHRPLGRPDAVILPGTKTTIADLQVLRETGMAEQLKTYAAQGGTILGICGGWQMLGTAISDPLGLEGCPGTYEGLGLMPLHTQLGPTKCTQQQQTQSLYFNCPEPILGYEIHQGQSEYTGDRQGWHPLFAAPELGLVNRAGTLWGTYLHGLLENGPWRRHWLNGLRSRRQLPPLPTAIPHYGEQRTVALDELTKTVMAHLNLRGICKLC
- protein production: failed

Sequence: MKALHFGAGNIGRGFIGKLLADAGIQLTFADVNQVVLDALNARHSYQVHVVGETEQVDTVSGVNAVSSIGDDVVDLIAQVDLVTTAVGPVVLERIAPAIAKGLVKRKEQGNESPLNIIACENMVRGTTQLKGHVMNALPEDAKAWVEEHVGFVDSAVDRIVPPSASATNDPLEVTVETFSEWIVDKTQFKGALPNIPGMELTDNLMAFVERKLFTLNTGHAITAYLGKLAGHQTIRDAILDEKIRAVVKGAMEESGAVLIKRYGFDADKHAAYIQKILGRFENPYLKDDVERVGRQPLRKLSAGDRLIKPLLGTLEYSLPHKNLIQGIAGAMHFRSEDDPQAQELAALIADKGPQAALAQISGLDANSEVVSEAVTAYKAMQ
- protein production: not failed

Sequence: MKALSPVRGCYEAVCCLSERSLAIARGRGKGPAAEEPLSLLDDMNHCYSRLRELVPGVPRGTQLSQVEILQRVIDYILDLQVVLAEPAPGPPDGPHLPIQTAELAPELVISNDKRSFCH
- protein production: failed

Sequence: MKARLLIVVAVLALTACATTTSPTGRRQVVGGVSQQQLDQLGAQSFAQTKAKEKVSTDGKQNAYVQCVVNALVAQLPPQWRETKWETALFVDNEANAFALPGGKVGVNTGIFTVAKTQDQLAAVLGHEIGHVISRHHEERITRQLGAQTGLGIIGALAGAAYGDGAASAVNQVGGMTAQTVFLLPGSRTQESEADVVGQRLMAQAGFDPAQAVTLWQNMMAASGNRQPQWLSTHPDPANRIRELQADVAQLEPVYQQAKQSGRAPRCG
- protein production: failed

Sequence: MKATLFVREFLLNPRTIGAILPSSDYLAEKMMASVCFEQAKYIIEYGPGTGVFTDKILRYRHPDTVVMIIEHNREFFCILNEKYQDEKNVIIINGSAEHIETYVKEHNIPFVDYIISGLPFASLPLHVSNAILNKARYLLGVKGKFITFQYTQTKVRLFTQFFNQMTVERVYRNLPPAFVFSCYNEKLEHHHHHH
- protein production: not failed

Sequence: MKAVANRYYVLCQEKVFIRSLLSGFFLLFISFLIMNFAGKYASLMAGNPVNDLILDNLPLRDVTLFHVNAAIIFWTIFTIYTLLNPAFIPFITKSAALFILIRCAFISMTHLGAPPNQLSIPDNFSSLVLFDGDLFFSGHVGGPFLMMLIFWNKTTLRYICLAAAVFFAYTVLIGHIHYSIDVFAAPFITYGIFHIGQFLFASDYQRLKSELTSSTGN
- protein production: failed

Sequence: MKAVILAAGRGSRLQALTDERPKALVPFNGVPLLQRAIETLRRCDVSEVGIVAGYRSEMLAPFADTLFYNHRWHSSGIFSSLNCASDWLSAEPCLVSYGDIFYDSTLVSELINHPADIVLGYDPAAVRLWQQRFNDPLPDLENFRLVDGWVSAIGQTATSLEVIQGQYMGLFKVTPAGWQALKKQLQGLTPQARDQTDMTSLLGTLVSEGFPVAGVATHAPWGEIDCPSDVALYERIYPDRLEHHHHHH
- protein production: failed

Sequence: MKAVLFDLDGTLIDTAADFIRIIQEMCREEQREVVDADLIRTQVSEGARAMVKLVYPELAVDDAVFLTHRQRFLDRYEQNIVVDTDLFKGMYPLLEMLESQQIPWGIVTNKPRHLTELLLERLNLTERCAVLVCPEDVQRTKPDPEPMFLAATQLHIAPEQIIYVGDHPRDIDAGRAAHMYTILAAYGYLPLQHKDNLNAWQADVIVQHVTELQKILSQQLHITPLNQDTMLQTS
- protein production: failed

Sequence: MKAVRVHILGSGGREHAIGWAFAKQGYEVHFYPGNAGTKRDGTNHPYEGEKTLKAIPEEDIVIPGSEEFLVEGVSNWRSNVFGPVKEVARLEGSKVYAKRFMKKYGIRTARFEVAETPEELREKIKKFSPPYVIKADGLARGKGVLILDSKEETIEKGSKLIIGELIKGVKGPVVIDEFLAGNELSAMAVVNGRNFVILPFVRDYKRLMDGDRGPNTGGMGSWGPVEIPSDTIKKIEELFDKTLWGVEKEGYAYRGFLYLGLMLHDGDPYILEYNVRLGDPETEVIVTLNPEGFVNAVLEGYRGGKMEPVEPRGFAVDVVLAARGYPDAPEKGKEITLPEEGLIFFAGVAEKDGKLVTNGGRVLHCMGTGETKEEARRKAYELAEKVHFEGKTYRRDIAL
- protein production: not failed

Sequence: MKDCCGGYESEELLMDFSGKDKAAYVQDTFNSIAKRYDVMNTLMSFGLDKGWRKKAVQTVEAKPGMTMVDICCGTAQLSLELAMTVGEQGQITGLDFSENMLKKAQENLAGSPYRSIIELRQGDAMNLPFADNSFDGATVGWGLRNLPDLEKGVQEMIRVVKPGGMVVSLDMAKPTMPGFKQGYWLYFNKLVPLMGKIWAGKAKAYQYLHDSAVEFPSQQELANIFARCGLTETRYQNLAGGVVAIVSGRKPR
- protein production: failed

Sequence: MKDFWTWERLSFHMVLAYNDDRSFLINTGMPLDLTLRNQEMKKFAGDRAIFRSEDSIEMLRKAGFTPDDIDYVALTPVQDYTIGRLNEFRKSKIFIFRDGWIKDIAAPAYAYFHNRDLFIPKNIFDFVYGEGWKNIIFYDGETELVPGIRAIPVGCHHRSSVAFAINAKDGTYVFTDASFKAENVRNRIPIGIAENIYECLSAYEKIEKIGKLLPAYDPAIDDLYIKLEHHHHHH
- protein production: not failed

Sequence: MKDIVIIGTENIGKEVVKIIEAINSKRNTWNVLGFISLKKDEEGSNIEGYSVLESIDSMFNYFEGRKKDKFYFFKKLESQNELFTIIAIDNCKLKKEIENKLKNKIKFATIIHPDVSFFNKQEVGEGTIIYPGLIVVGRFKLGKHVILKQKCSLGNNIEIGDYSFISFNSNIDSNVMVKEGSYIEANTTILANSNIDKNTYIKEGSILY
- protein production: failed

Sequence: MKDIYELLNDIDIDEKELEEIEASEIEKEKVKRNVKQSIRTKKKMKSWKKGVAAASILVGLSVTTLGIGFPTYAGGLPIVGDIFRFLDNGRTGLYENYKEFSTELNMTRESNGVKVTINDVISDGRTLSITYSLESEQDLGDDPIILGGLDIMDAHGSSGSGKMTKVTEKKYVGMVTTTHHDSNKKDKVNFRWNIEGIEIPDRKKSIQGHWNFALTVKSMDSKERTIGGSSEKEGIKANMEKVAMSPVSFILYYNQEVSKGARKEWDSVDVELTVKDDLGNDYSGEGNGGSGNDPYNIRWSATFQKLNENATKLIVTPRVHLRVHTPENHGGVEYVNGKEKKIEVPNKEAKKKDIVLDDIVIDLKK
- protein production: not failed
